T1: human DNAM-1 (human, UniProt Q15762 19-336)
T1 construct: whole, on cells; also called hDNAM-1; CD226
T1 sequence (looked up): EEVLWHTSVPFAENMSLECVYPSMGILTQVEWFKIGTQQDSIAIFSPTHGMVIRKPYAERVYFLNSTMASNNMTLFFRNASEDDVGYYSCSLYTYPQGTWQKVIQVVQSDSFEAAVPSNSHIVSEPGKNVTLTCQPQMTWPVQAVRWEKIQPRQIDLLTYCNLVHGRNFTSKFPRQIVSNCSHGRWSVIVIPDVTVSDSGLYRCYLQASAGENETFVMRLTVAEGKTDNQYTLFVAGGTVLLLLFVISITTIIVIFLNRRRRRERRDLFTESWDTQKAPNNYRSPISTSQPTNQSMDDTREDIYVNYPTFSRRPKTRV


Key:
human DNAM-1 [1] = target: T1, human DNAM-1; experiment: flow cytometry on BW5147 cells stably expressing human DNAM-1 (hDNAM-1/BW)
human DNAM-1 [2] = target: T1, human DNAM-1; experiment: flow cytometry on hDNAM-1/BW cells, antibody purified from CHO-K1
Experimental: Binding to human DNAM-1 was examined by flow cytometry using a mouse lymphoblast BW5147 cell line (hereinafter, may be referred to as “BW”) and BW5147 stably expressing human hDNAM-1 (hereinafter, may be referred to as “hDNAM-1/BW”). Test antibodies at various concentrations were incubated with about […] hDNAM-1/BW cells at 4° C. for 1 hour in PBS (FACS buffer) containing 0.5% BSA and 0.05% NaN3. Thereafter, the cells were washed with ice-cooled FACS Buffer, and incubated at 4° C. for 30 minutes using a PE-labeled goat anti-human IgG antibody (manufactured by SouthernBiotech). After washing with FACS buffer, the stained cells were analyzed using a FACScan flow cytometer (manufactured by BD Biosciences).

Binder	EC50 (human DNAM-1 [1]) [µg/mL]	EC50 (human DNAM-1 [2]) [µg/mL]
anti-human DNAM-1 monoclonal antibody mAKB1 (antibody, V domains shown, also called clone mAKB1) VH: DVQLQESGPGLVKPSQSLSLTCSVTGYSITSGYYWNWIRQFPGNKLEWMGYISYDGSNNYNPSLKNRISITRDTSKNQFFLKLNSVTTEDTATYYCARAYYGNYVGYFDVWGAGTTVTVSS VL: SIVMTQTPKFLLVSAGDRVTITCKASQSVSNDVAWYQQKPGQSPKLLIYYASNRYTGVPDRFTGSGYGTDFTFTISTVQAEDLAVYFCQQDYSSPLTFGAGTKLELKR	6	–
humanized anti-DNAM-1 antibody hAKB1-B (antibody, human IgG1, kappa, L234A L235A, V domains shown, Full chains without signal peptide; also called phAKB1-B (expression vector); hAKB1-VH2 + hAKB1-VL1) VH: QVQLQESGPGLVKPSETLSLTCTVSGYSISSGYYWNWIRQPPGKGLEWMGYISYDGSNNYNPSLKNRVTISRDTSKNQFSLKLSSVTAADTAVYYCARAYYGNYVGYFDVWGQGTTVTVSS VL: DIQMTQSPSSLSASVGDRVTITCKASQSVSNDVAWYQQKPGKAPKLLIYYASNRYTGVPSRFSGSGYGTDFTFTISSLQPEDIATYYCQQDYSSPLTFGGGTKVEIKR	–	5
humanized anti-DNAM-1 antibody hAKB1-A (antibody, human IgG1, kappa, L234A L235A, V domains shown, Full chains without signal peptide; also called phAKB1-A (expression vector); hAKB1-VH1 + hAKB1-VL1) VH: QVQLQESGPGLVKPSETLSLTCTVSGYSITSGYYWNWIRQPPGKGLEWMGYISYDGSNNYNPSLKNRVTISRDTSKNQFSLKLSSVTAADTAVYYCARAYYGNYVGYFDVWGQGTTVTVSS VL: DIQMTQSPSSLSASVGDRVTITCKASQSVSNDVAWYQQKPGKAPKLLIYYASNRYTGVPSRFSGSGYGTDFTFTISSLQPEDIATYYCQQDYSSPLTFGGGTKVEIKR	–	5

— patent US20250051442A1 (UNIVERSITY OF TSUKUBA, published 2025)
